The values that follow come from patent US8722052B2, “Vaccinia virus protein A46 peptide and use thereof” (priority 2008, dated 2014).

One data set deals with T1, TLR3 (Homo sapiens, UniProt O15455).
T1 construct: expressed in transfected cells
The experiment in a line: poly(I:C)-induced NFκB / ISRE luciferase reporter assay in HEK293_TLR3 cells. The note with it: peptide 2, 5 or 10 μM, 25 μg/ml poly(I:C), 6 h. The class given is cell-based. On the procedure:
FIGS. 11A and B are bar charts showing the effect of A464 and scrambled A464 (ConA464) on poly(I:C)-induced TLR3 signalling in HEK293 cells. HEK293_TLR3 cells were seeded in 96 well plates (1.5×10^5 cells/ml) 24 hours before transfection with the plasmid DNA. Cells were transfected with 60 ng of either ISRE-Luciferase (A) or NFκB-Luciferase (B) and 20 ng of TK-Renilla reporter gene plasmids. The total volume of plasmid DNA transfected into the cells was made up to 230 ng by adding pcDNA.
Scrambled A464 (ConA464) (SEQ ID NO. 32) and A464 (SEQ ID NO. 20) peptides were added to the cells at a concentration of 2, 5 or 10 μM the next day and cells were stimulated with 25 μg/ml poly(I:C) 1 hour after treatment with the peptide. Cells were harvested and reporter gene assays performed 6 hr after stimulation with the agonist. No peptides were added to the control wells (black bars). Data is representative of at least three experiments each performed in triplicate. Data are expressed as mean fold induction±s.d. relative to control levels;
FIGS. 20A and B are bar charts showing the effect of shortened A464 peptides with deletions of N- and C-terminal amino acids on TLR4- and TLR3-induced NFκB activation in HEK293 cells. HEK293_TLR4 (A) and HEK293_TLR3 (B) cells were seeded in 96 well plates (1.5×10^5 cells/ml) 24 hours before transfection with the plasmid DNA. Cells were transfected with 60 ng NFκB-Luciferase and 20 ng of TK-Renilla reporter genes, as in FIG. 11. A464N-2 (SEQ ID NO. 41) and A464C-3 (SEQ ID NO. 42) peptides were added to the cells at a concentration of 1, 5 or 25 μM the next day and cells were stimulated with either 10 ng/ml LPS (A) or 25 μg/ml Poly(I:C) (B) 1 hour after treatment with peptides. Cells were harvested and assayed for NFκB activation by reporter gene assay 6 hours after stimulation with the agonists. No peptides were added to the control wells (black bars). Data is representative of three experiments each performed in triplicate and is expressed as mean fold induction±s.d. relative to control levels;
HEK293 cells were transfected using GeneJuice® a proprietary non-toxic transfection reagent. 200 μl/well cells at a density of 1×10^5 cells/ml were seeded the day before transfection. 0.8 μl of GeneJuice was mixed with 9.2 μl of serum-free DMEM (SFM) per transfection and incubated for 5 min at room temperature before adding the appropriate amount of the plasmid DNA. The GeneJuice/SFM/DNA mixture was then incubated at room temperature for 15 min before adding to the cells. 10 μl per well of the GeneJuice/SMF/DNA mixture was added to the cells in triplicate and the cells were allowed to recover for 18-20 hours before stimulation. […]
(In general: Reporter assays use an easily measured gene product as a stand-in for the process of interest.)

The test system of another data set is THP-1 cells. The experiment in a line: MTT cell viability assay, THP-1. The following applies: peptide 5 and 10 μM, 10 ng/ml LPS. The class given is cell-based, human. The procedure: FIGS. 7A and B are bar charts showing the effect of A464 on TNFα production and cell viability of human THP-1 cells stimulated with LPS. Cells were seeded in 96 well plates (3×10^5 cells/ml) and differentiated with 200 nM PMA for 24 hours before treatment. A464 (SEQ ID NO. 20) was added to the cells at a concentration of 5 or 10 μM 1 hour before stimulating with 10 ng/ml LPS. Supernatants were collected 6 hours after stimulation and assayed for TNFα by ELISA (A) and cells were assayed for viability by the MTT assay (B.). No peptides were added to the control wells (black bars). Data is representative of at least three experiments each performed in triplicate and is expressed as mean±s.d;
FIGS. 9A and B are bar charts showing the effect of A464 on Pam3CysK4-induced TNFα in human THP-1 cells. Cells were seeded in 96 well plates (3×10^5 cells/ml) and differentiated with 200 nM PMA for 24 hours before treatment. […] Data is representative of at least three experiments each performed in triplicate and is expressed as mean±s.d;
Cell viability was measured by assessing mitochondrial function using an MTT (3-(4,5-Dimethylthiazol-2-yl)-2,5-diphenyltetrazolium bromide) assay. […] MTT was then removed and 200 μl per well of dimethyl sulphoxide (DMSO) was added and cells incubated for 20 min at 37° C. in the dark, prior to absorbance being read at 595 nm on a spectrophotometer.

“Also recorded” adds a separate entry of the source.

Regarding KYSFKLILAEYRRRRRRRRR [Peptide A464], in the data set with TLR3, the “inhibition of TLR3-mediated ISRE induction” value is listed as “slightly enhanced; also recorded: insensitive to inhibition” and the “inhibition of TLR3-mediated NFκB activation” value is “insensitive to inhibition; also recorded: slightly enhanced”. Also, the “cytotoxicity (MTT)” value in the data set with THP-1 cells is on record as “no cytotoxicity”.
